# How the values were obtained:
# HMG1 = settings: [Pt(en)Cl2]; photo-cross-linking efficiency about half that of cis-DDP probe
# HMG domain B (of HMG1) [1] = target: T1, HMG domain B (of HMG1) (UniProt P63159 P63159:86-165); test: EMSA; 10-40 equiv protein; about 50% shifted at 1 uM DNA with 1.5 equiv (Example 5); also photo-cross-links at 302 nm via Lys-6; 10 mM Tris pH 7.5, 10 mM MgCl2, 50 mM KCl; settings: tags: expressed from pHB1 in E. coli BL21(DE3); label: 5'-32P
# Procedure: Reaction mixtures (10 µL total volume) were prepared containing 10 mM Tris-HCl, pH 7.5, 4% (v/v) glycerol, 10 mM MgCl2, 50 mM KCl, 1 mM EDTA and 0.05% (v/v) Nonidet P-40. HMG domain B [expressed and purified from pHB1/*Escherichia coli* BL21 (DE3) (Chow et al. (1995) *Biochemistry* 33: 15124–30)] was added, and the solution was incubated for 30 min on ice to allow protein-DNA binding. For binding of the 123- and 82-bp probes to HMG1, 0.2 µg of BSA/mL, 2 µg of competitor chicken erythrocyte DNA, and 300 ng of HMG1 were included in the reaction mixtures. To induce photo-cross-linking of the protein—DNA complexes, the reaction mixtures contained in open microcentrifuge tubes were placed on ice and irradiated from about for 1–2 h at a distance of 4 cm from a transilluminator (Ultra-Violet Products, TM-15) equipped with one of several different lamps, with primary spectral outputs of 254, 302, or 365 nm. The light intensity, 2.6–2.9 J m^-2 s^-1, was measured with a UVX radiometer (Ultra-Violet Products). Following irradiation, the reaction mixtures were combined with 5 µL of gel-loading solution [10 M urea, 1.5 mM EDTA, 0.05% (w/v) bromophenol blue and xylene cyanol]. The DNA was denatured by heating at 90° C. for 4 min and then analyzed by denaturing PAGE. The denaturing 8% polyacrylamide gel was run to determine photo-crosslinking of HMG1 to globally platinated 123-bp probes. […]
# HMG domain B (of HMG1) [2] = target: T1, HMG domain B (of HMG1); test: EMSA; 10-40 equiv protein; settings: tags: expressed from pHB1 in E. coli BL21(DE3); label: 5'-32P
# T1 sequence (P63159 86-165, one chain of several): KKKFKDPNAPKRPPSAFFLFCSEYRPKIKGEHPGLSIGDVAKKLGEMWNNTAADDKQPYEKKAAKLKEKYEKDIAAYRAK
molecule,measurement,setting,value
[Pt(en)Cl2]-modified DNA,binding signal (fraction of cis-DDP probe),HMG1,0.5
"15Pt/15B cisplatin-modified 15-bp duplex (dsDNA, single cis-[Pt(NH3)2{d(GpG)-N7(1),-N7(2)}] intrastrand cross-link at GG) DNA 1: CCTCTCTGGTTCTTC DNA 2: GAAGAACCAGAGAGG",binding result,HMG domain B (of HMG1) [1],binds
"CCTCTCTGGTTCTTC (ssDNA, single cis-[Pt(NH3)2{d(GpG)-N7(1),-N7(2)}] intrastrand cross-link at GG) [15Pt single strand]",binding result,HMG domain B (of HMG1) [2],no binding

# Source: patent US6030783, “Photo-potentiation of cisplatin chemotherapy” (Massachusetts Institute of Technology)
